In the supplement of paper PMC7877785:
± gives the uncertainty stated by the source.

Test: self-splicing fitness, log relative to wild type (ln ratio); higher = more splicing; Tetrahymena group I intron in knt gene, E. coli kanamycin selection, DiMSum; sequences stand for … in CUCUCU…GGAGGGAAAAGUUAUCAGGCAUGCACCUGGUAGCUAGUCUUUAAACCAAUAGAUUGCAUCGGUUUAAAAGGCAAGACCGUCAAAUUGCGGGAAAGGGGUCAACAGCCGUUCAGUACCAAGUCUCAGGGGAAACUUUGAGAUGGCCUUGCAAAGGGUAUGGUAAUAAGCUGACGGACAUGGUCCUAACCACGCAGCCAAGUCCUAAGUCAACAGAUCUUCUGUUGAUAUGGAUGCAGUUCACAGACUAAAUGUCGGUCGGGGAAGAUGUAUUCUUCUCAUAAGAUAUAGUCGGACCUCUCCUUAAUGGGAGCUAGCGGAUGAAGUGAUGCAACACUGGAGCCGCUGGGAACUAAUUUGUAUGCGAAAGUAUAUUGAUUAGUUUUGGAGUACUCGUGGUCG
How it was run: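 Colonies from six replicate transformations of E. coli BL21(DE3) were pooled and amplicon-sequenced on an Illumina HiSeq 2500. The library placed an intron with all eight P1ex-region nucleotides randomised inside the knt kanamycin-resistance gene on pET-22b(+), and cells grew overnight at 37°C or 30°C on LB agar with or without 25 μg/mL kanamycin (plus 100 μg/mL carbenicillin, 50 μM IPTG, 0.2% rhamnose). Fitness is the DiMSum error-weighted combination of wild-type-normalised replicate fold changes, kanamycin versus none.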

Row | Sequence | self-splicing fitness (ln) (30 °C) | self-splicing fitness (ln) (37 °C)
1 | UAAAAGCAAUAUUACGUAGA | -2.7 ± 0.12 | -1.45 ± 0.14
2 | UAAAAGCAAUAUUACGUCCA | 0.0284 ± 0.091 | -0.623 ± 0.12
3 | UAAAAGCAAUAUUACGUGAU | -2.46 ± 0.11 | -2.04 ± 0.16
4 | UAAAAGCAAUAUUACGUGUA | -1.86 ± 0.055 | -0.743 ± 0.056
5 | UAAAAGCAAUAUUACGUGUG | -1.07 ± 0.052 | -0.712 ± 0.069
6 | UAAAAGCAAUAUUACGUUGU | -3.71 ± 0.14 | -1.96 ± 0.14
7 | UAACAGCAAUAUUACGAAAC | -4.62 ± 0.38 | -2.75 ± 0.36
8 | UAACAGCAAUAUUACGAACU | -0.722 ± 0.11 | -0.651 ± 0.15
9 | UAACAGCAAUAUUACGACCA | -0.808 ± 0.08 | 0.224 ± 0.11
10 | UAACAGCAAUAUUACGACUA | -0.142 ± 0.049 | -0.212 ± 0.057
11 | UAACAGCAAUAUUACGAUCG | -0.667 ± 0.07 | -0.00548 ± 0.098
12 | UAACAGCAAUAUUACGAUUC | -1.68 ± 0.1 | -1.01 ± 0.12
13 | UAACAGCAAUAUUACGCACU | -1.26 ± 0.06 | 0.231 ± 0.087
14 | UAACAGCAAUAUUACGCAGA | -2.78 ± 0.14 | -1.47 ± 0.087
15 | UAACAGCAAUAUUACGCAUC | -4.63 ± 0.22 | -2.51 ± 0.17
16 | UAACAGCAAUAUUACGCCAU | -3.93 ± 0.22 | -2.11 ± 0.17
17 | UAACAGCAAUAUUACGCCGG | -0.84 ± 0.067 | -0.697 ± 0.091
18 | UAACAGCAAUAUUACGCCUU | -1.48 ± 0.074 | -0.968 ± 0.094
19 | UAACAGCAAUAUUACGCGAC | -3.97 ± 0.29 | -2.05 ± 0.16
20 | UAACAGCAAUAUUACGCGAG | -0.783 ± 0.052 | -0.508 ± 0.066
21 | UAACAGCAAUAUUACGCGAU | -3.97 ± 0.32 | -2.36 ± 0.23
22 | UAACAGCAAUAUUACGCUUU | -3.43 ± 0.14 | -1.82 ± 0.13
23 | UAACAGCAAUAUUACGGAUA | -0.969 ± 0.088 | -0.486 ± 0.1
24 | UAACAGCAAUAUUACGGCGA | -0.267 ± 0.077 | -0.198 ± 0.08
25 | UAACAGCAAUAUUACGGCUC | -1.77 ± 0.1 | -0.836 ± 0.14
26 | UAACAGCAAUAUUACGGGAG | -2.3 ± 0.1 | -1.62 ± 0.096

Row | Sequence | self-splicing fitness (ln) (30 °C) | self-splicing fitness (ln) (37 °C)
27 | UAACAGCAAUAUUACGGGGG | -3.25 ± 0.27 | -1.9 ± 0.17
28 | UAACAGCAAUAUUACGGUCU | -1.5 ± 0.068 | -0.783 ± 0.075
29 | UAACAGCAAUAUUACGUGGU | -2.87 ± 0.12 | -2.93 ± 0.2
30 | UAACAGCAAUAUUACGUUAA | -3.25 ± 0.2 | -1.6 ± 0.12
31 | UAAGAGCAAUAUUACGAAAC |  | -2.99 ± 0.37
32 | UAAGAGCAAUAUUACGACAG | -3.17 ± 0.25 | -2.34 ± 0.23
33 | UAAGAGCAAUAUUACGACUU | -2.79 ± 0.18 | -0.528 ± 0.15
34 | UAAGAGCAAUAUUACGAGGU | -3.48 ± 0.23 | -2.56 ± 0.27
35 | UAAGAGCAAUAUUACGAUUA | -0.804 ± 0.1 | 0.2 ± 0.1
36 | UAAGAGCAAUAUUACGCCCA | -2.62 ± 0.26 | -2.09 ± 0.41
37 | UAAGAGCAAUAUUACGCCCU | -3.1 ± 0.31 | -2.01 ± 0.41
38 | UAAGAGCAAUAUUACGCCGG | -2.97 ± 0.31 | -1.72 ± 0.26
39 | UAAGAGCAAUAUUACGCGGU | -3.3 ± 0.3 | -2.15 ± 0.34
40 | UAAGAGCAAUAUUACGGAUC | -3.68 ± 0.46 | -1.64 ± 0.31
41 | UAAGAGCAAUAUUACGGCAA | -2.23 ± 0.18 | -2.03 ± 0.14
42 | UAAGAGCAAUAUUACGGCAU | -2.3 ± 0.39 | -1 ± 0.3
43 | UAAGAGCAAUAUUACGGGAG | -3.33 ± 0.24 | -1.83 ± 0.19
44 | UAAGAGCAAUAUUACGGGGU | -2.67 ± 0.19 | -1.44 ± 0.49
45 | UAAGAGCAAUAUUACGUAAU | -3.14 ± 0.15 | -3.17 ± 0.29
46 | UAAGAGCAAUAUUACGUACG | -1.42 ± 0.16 | -1.73 ± 0.17
47 | UAAGAGCAAUAUUACGUACU | -2.79 ± 0.25 | -0.993 ± 0.2
48 | UAAGAGCAAUAUUACGUCGA | -3.95 ± 0.3 | -1.74 ± 0.17
49 | UAAGAGCAAUAUUACGUUCC |  | -1.98 ± 0.39
50 | UAAUAGCAAUAUUACGAAGC |  | -1.83 ± 0.33
51 | UAAUAGCAAUAUUACGACGU | -3.74 ± 0.33 | -1.76 ± 0.18
52 | UAAUAGCAAUAUUACGAUAU | -3.99 ± 0.47 | -1.52 ± 0.25

Row | Sequence | self-splicing fitness (ln) (30 °C) | self-splicing fitness (ln) (37 °C)
53 | UAAUAGCAAUAUUACGAUCA | -0.744 ± 0.085 | 0.387 ± 0.1
54 | UAAUAGCAAUAUUACGCAAC | -2.64 ± 0.4 | -1.73 ± 0.37
55 | UAAUAGCAAUAUUACGCGCU | 0.173 ± 0.2 | -0.565 ± 0.18
56 | UAAUAGCAAUAUUACGCGGA |  | -1.82 ± 0.19
57 | UAAUAGCAAUAUUACGCGUG | -1.37 ± 0.1 | -0.125 ± 0.12
58 | UAAUAGCAAUAUUACGCUCU | -1.03 ± 0.14 | -0.42 ± 0.18
59 | UAAUAGCAAUAUUACGGAAG | -3.02 ± 0.21 | -0.76 ± 0.16
60 | UAAUAGCAAUAUUACGGACA | -1.12 ± 0.17 | -0.393 ± 0.16
61 | UAAUAGCAAUAUUACGGACC |  | -1.42 ± 0.29
62 | UAAUAGCAAUAUUACGGAUG | -1.58 ± 0.08 | -0.737 ± 0.087
63 | UAAUAGCAAUAUUACGGCAA | -1.99 ± 0.14 | -0.69 ± 0.12
64 | UAAUAGCAAUAUUACGGCAG | -1.08 ± 0.1 | -0.425 ± 0.13
65 | UAAUAGCAAUAUUACGGCGU | -2.6 ± 0.19 | -1.6 ± 0.24
66 | UAAUAGCAAUAUUACGGGAA | -2.04 ± 0.21 | -2.11 ± 0.26
67 | UAAUAGCAAUAUUACGGGAU | -4.36 ± 0.46 | -2.49 ± 0.22
68 | UAAUAGCAAUAUUACGGGGA | -1.91 ± 0.15 | -2.65 ± 0.34
69 | UAAUAGCAAUAUUACGGGUA | -1.9 ± 0.17 | -0.433 ± 0.14
70 | UAAUAGCAAUAUUACGGUCG | -0.872 ± 0.1 | 0.313 ± 0.11
71 | UAAUAGCAAUAUUACGUAAC |  | -2.03 ± 0.38
72 | UAAUAGCAAUAUUACGUAUG | -1.88 ± 0.12 | -0.28 ± 0.13
73 | UAAUAGCAAUAUUACGUGCC | -3.27 ± 0.43 | -1.47 ± 0.31
74 | UAAUAGCAAUAUUACGUGGA | -2.97 ± 0.23 | -2.33 ± 0.24
75 | UAAUAGCAAUAUUACGUUAC | -4.32 ± 0.34 | -2.2 ± 0.23
76 | UAAUAGCAAUAUUACGUUCA | -0.833 ± 0.098 | -0.14 ± 0.1
77 | UAAUAGCAAUAUUACGUUCC |  | -1.52 ± 0.48
